# Biological target: Artemia salina 40S ribosomal subunit (Artemia salina)
# Assay: iRIA (in vitro Ribosomes Interaction Assay, microwell solid-phase binding); 40S immobilised, labeled 60S displaced by 5-fold unlabeled 60S; room temperature, 10 minutes
substance,measurement,value
Artemia salina 60S ribosomal subunit (mature) (complex),percent displacement of labeled 60S by 5-fold unlabeled 60S,50%
